Experimental data published in PMC9482650, “Quantitative fragmentomics allow affinity mapping of interactomes” (Nature Communications, 2022).

Columns and labels:
Assay in all cases: holdup assay
Design in all cases: key: below the threshold = too weak to quantify, mostly under pKd 3.1 to 4
FRMPD2_3, Q68DX3 = biological target: FRMPD2_3, Q68DX3
SHANK1, Q9Y566 = biological target: T1, SHANK1, Q9Y566
T1 sequence (Q9Y566 658-767, limits assumed, looked up): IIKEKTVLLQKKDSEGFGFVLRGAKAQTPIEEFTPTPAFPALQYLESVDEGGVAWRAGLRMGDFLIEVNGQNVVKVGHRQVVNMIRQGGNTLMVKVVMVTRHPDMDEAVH

DLG1_3, Q12959 = biological target: DLG1_3, Q12959
LAP2, Q96RT1 = biological target: LAP2, Q96RT1
MPDZ_5, O75970 = biological target: T2, MPDZ_5, O75970
T2 sequence (O75970 695-796, limits assumed, looked up): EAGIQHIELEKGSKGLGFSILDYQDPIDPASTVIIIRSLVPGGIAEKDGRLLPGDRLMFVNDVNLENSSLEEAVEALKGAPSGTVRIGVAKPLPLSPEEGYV

FRMPD2_1, Q68DX3 = biological target: FRMPD2_1, Q68DX3
DLG4_3, P78352 = biological target: DLG4_3, P78352
FRMPD2_2, Q68DX3 = biological target: FRMPD2_2, Q68DX3
GOPC, Q9HD26 = biological target: GOPC, Q9HD26
MAGI2_4, Q86UL8 = biological target: MAGI2_4, Q86UL8
LIN7C, Q9NUP9 = biological target: T3, LIN7C, Q9NUP9
T3 sequence (Q9NUP9 88-185, limits assumed, looked up): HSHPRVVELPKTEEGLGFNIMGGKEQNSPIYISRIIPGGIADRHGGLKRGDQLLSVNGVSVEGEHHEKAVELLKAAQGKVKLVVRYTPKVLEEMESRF

GORASP1, Q9BQQ3 = biological target: GORASP1, Q9BQQ3
SCRIB_2, Q14160 = biological target: SCRIB_2, Q14160
SNTB1, Q13884 = biological target: T4, SNTB1, Q13884
T4 sequence (Q13884 107-205, limits assumed, looked up): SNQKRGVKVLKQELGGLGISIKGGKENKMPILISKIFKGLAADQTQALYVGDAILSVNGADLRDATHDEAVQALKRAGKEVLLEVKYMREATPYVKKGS

APBA2_1, Q99767 = biological target: T5, APBA2_1, Q99767
T5 sequence (Q99767 563-664, limits assumed, looked up): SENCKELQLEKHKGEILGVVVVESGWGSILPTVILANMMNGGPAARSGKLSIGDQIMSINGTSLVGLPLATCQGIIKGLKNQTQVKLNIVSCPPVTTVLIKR

NOS1, P29475 = biological target: NOS1, P29475
MAGI2_6, Q86UL8 = biological target: MAGI2_6, Q86UL8
FRMPD1, Q5SYB0 = biological target: T6, FRMPD1, Q5SYB0
T6 sequence (Q5SYB0 52-145, limits assumed, looked up): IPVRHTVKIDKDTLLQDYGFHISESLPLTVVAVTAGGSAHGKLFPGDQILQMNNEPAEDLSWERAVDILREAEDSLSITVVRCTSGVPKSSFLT

GRIP1_7, Q9Y3R0 = biological target: T7, GRIP1_7, Q9Y3R0
T7 sequence (Q9Y3R0 999-1096, limits assumed, looked up): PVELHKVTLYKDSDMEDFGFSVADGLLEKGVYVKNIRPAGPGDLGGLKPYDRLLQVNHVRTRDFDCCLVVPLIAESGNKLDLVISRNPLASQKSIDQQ

DVL3, Q92997 = biological target: T8, DVL3, Q92997
T8 sequence (Q92997 244-331, limits assumed, looked up): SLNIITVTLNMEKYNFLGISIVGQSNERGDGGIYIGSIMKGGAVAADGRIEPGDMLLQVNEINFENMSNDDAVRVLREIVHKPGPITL

PDZD7_3, Q9H5P4 = biological target: T9, PDZD7_3, Q9H5P4
T9 sequence (Q9H5P4 857-944, limits assumed, looked up): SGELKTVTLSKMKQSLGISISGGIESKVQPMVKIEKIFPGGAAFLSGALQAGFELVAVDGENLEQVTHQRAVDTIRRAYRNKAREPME

CASK, O14936 = biological target: CASK, O14936
Inadl_5, Q8NI35 = biological target: Inadl_5, Q8NI35
DLG3_3, Q92796 = biological target: T10, DLG3_3, Q92796
T10 sequence (Q92796 374-475, limits assumed, looked up): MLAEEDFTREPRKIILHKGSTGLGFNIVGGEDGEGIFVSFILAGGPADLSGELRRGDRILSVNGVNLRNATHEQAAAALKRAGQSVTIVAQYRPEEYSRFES

APBA1_2, Q02410 = biological target: T11, APBA1_2, Q02410
T11 sequence (Q02410 742-832, limits assumed, looked up): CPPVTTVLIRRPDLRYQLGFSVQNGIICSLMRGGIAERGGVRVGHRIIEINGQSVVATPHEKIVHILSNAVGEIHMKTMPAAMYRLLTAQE

LNX1_3, Q8TBB1 = biological target: LNX1_3, Q8TBB1
Inadl_1, Q8NI35 = biological target: Inadl_1, Q8NI35
[1] = plain residues with an end cap or a label only (N-terminal biotin on a linker: ttds)
[2] = plain residues with an end cap or a label only (N-terminal biotin on a linker: ahx)
[3] = plain residues with an end cap or a label only (N-terminal biotin on a linker: ado-ado)

DLG1_3, Q12959, sequence (Q12959 457-571): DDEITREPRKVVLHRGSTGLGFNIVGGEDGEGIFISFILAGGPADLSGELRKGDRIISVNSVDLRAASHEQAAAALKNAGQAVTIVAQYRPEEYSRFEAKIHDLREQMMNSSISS
LAP2, Q96RT1, sequence (Q96RT1 other isoform, or with tags, fused parts or gaps): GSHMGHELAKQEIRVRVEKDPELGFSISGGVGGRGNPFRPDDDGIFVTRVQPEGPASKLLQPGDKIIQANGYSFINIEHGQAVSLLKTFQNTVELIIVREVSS
DLG4_3, P78352, sequence (P78352 306-403): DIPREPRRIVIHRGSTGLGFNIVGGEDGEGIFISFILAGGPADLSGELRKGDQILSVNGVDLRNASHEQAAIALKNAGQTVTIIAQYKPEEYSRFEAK
MAGI2_6, Q86UL8, sequence (Q86UL8 1141-1229): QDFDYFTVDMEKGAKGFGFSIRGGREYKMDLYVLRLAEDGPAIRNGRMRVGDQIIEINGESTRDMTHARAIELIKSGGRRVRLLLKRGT
SCRIB_2, Q14160, sequence (Q14160 857-960): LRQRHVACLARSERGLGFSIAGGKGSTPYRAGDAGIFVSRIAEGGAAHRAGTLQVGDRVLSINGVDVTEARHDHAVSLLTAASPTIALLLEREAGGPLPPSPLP
FRMPD2_2, Q68DX3, sequence (Q68DX3 944-1038): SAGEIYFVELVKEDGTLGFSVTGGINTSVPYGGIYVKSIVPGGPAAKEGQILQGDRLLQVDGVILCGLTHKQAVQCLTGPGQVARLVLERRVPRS
FRMPD2_1, Q68DX3, sequence (Q68DX3 770-861): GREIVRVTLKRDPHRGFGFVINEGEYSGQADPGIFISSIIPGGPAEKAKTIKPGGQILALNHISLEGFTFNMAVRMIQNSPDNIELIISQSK
NOS1, P29475, sequence (P29475 9-101): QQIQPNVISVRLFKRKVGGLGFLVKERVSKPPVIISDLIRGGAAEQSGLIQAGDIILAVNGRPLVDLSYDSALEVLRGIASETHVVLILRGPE
GORASP1, Q9BQQ3, sequence (Q9BQQ3 1-208): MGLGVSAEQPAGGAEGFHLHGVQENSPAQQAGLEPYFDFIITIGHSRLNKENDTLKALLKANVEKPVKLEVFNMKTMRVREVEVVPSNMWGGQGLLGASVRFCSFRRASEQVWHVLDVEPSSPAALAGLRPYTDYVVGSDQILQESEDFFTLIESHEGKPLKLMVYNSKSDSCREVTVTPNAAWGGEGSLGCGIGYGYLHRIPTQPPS
LNX1_3, Q8TBB1, sequence (Q8TBB1 500-596): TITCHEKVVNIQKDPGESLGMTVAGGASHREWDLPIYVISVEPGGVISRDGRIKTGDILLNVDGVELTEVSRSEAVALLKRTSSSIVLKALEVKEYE
Inadl_5, Q8NI35, sequence (Q8NI35 673-780): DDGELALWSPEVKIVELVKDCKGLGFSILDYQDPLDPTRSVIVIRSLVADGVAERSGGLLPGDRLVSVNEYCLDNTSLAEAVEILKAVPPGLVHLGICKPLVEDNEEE
FRMPD2_3, Q68DX3, sequence (Q68DX3 1073-1166): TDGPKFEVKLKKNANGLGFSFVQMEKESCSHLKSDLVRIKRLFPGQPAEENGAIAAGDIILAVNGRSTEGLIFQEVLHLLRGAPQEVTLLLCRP
Inadl_1, Q8NI35, sequence (Q8NI35 113-229): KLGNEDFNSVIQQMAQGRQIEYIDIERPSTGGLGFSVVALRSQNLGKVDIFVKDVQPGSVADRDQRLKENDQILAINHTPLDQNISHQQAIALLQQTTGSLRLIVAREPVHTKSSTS
MAGI2_4, Q86UL8, sequence (Q86UL8 772-865): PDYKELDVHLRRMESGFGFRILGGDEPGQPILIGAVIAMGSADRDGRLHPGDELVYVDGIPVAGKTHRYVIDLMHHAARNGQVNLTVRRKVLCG
CASK, O14936, sequence (O14936 487-570): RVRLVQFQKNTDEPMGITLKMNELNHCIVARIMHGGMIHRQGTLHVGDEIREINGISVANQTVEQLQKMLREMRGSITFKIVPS

QFQYAKESYI [TAGAP, Q8N103]
pKd (FRMPD2_3, Q68DX3; [1]): below the threshold
pKd (SHANK1, Q9Y566; [1]): below the threshold
pKd (DLG1_3, Q12959; [1]): 4.05
pKd (LAP2, Q96RT1; [1]): 3.48
pKd (MPDZ_5, O75970; [1]): below the threshold
pKd (FRMPD2_1, Q68DX3; [1]): below the threshold
pKd (DLG4_3, P78352; [1]): 3.55
pKd (FRMPD2_2, Q68DX3; [1]): 4.33
pKd (GOPC, Q9HD26; [1]): 3.95
pKd (MAGI2_4, Q86UL8; [1]): below the threshold
pKd (LIN7C, Q9NUP9; [1]): 4.21
pKd (GORASP1, Q9BQQ3; [1]): 3.9
pKd (SCRIB_2, Q14160; [1]): 3.56
pKd (SNTB1, Q13884; [1]): 4.92
pKd (APBA2_1, Q99767; [1]): below the threshold
pKd (NOS1, P29475; [1]): 3.82
pKd (MAGI2_6, Q86UL8; [1]): 3.99
pKd (FRMPD1, Q5SYB0; [1]): below the threshold
pKd (GRIP1_7, Q9Y3R0; [1]): below the threshold
pKd (DVL3, Q92997; [1]): below the threshold
pKd (PDZD7_3, Q9H5P4; [1]): 4.87
pKd (CASK, O14936; [1]): below the threshold
pKd (Inadl_5, Q8NI35; [1]): below the threshold
pKd (DLG3_3, Q92796; [1]): 3.57
pKd (APBA1_2, Q02410; [1]): 3.8
pKd (LNX1_3, Q8TBB1; [1]): below the threshold
pKd (Inadl_1, Q8NI35; [1]): below the threshold

TIVSWPGTFL [LNX1, Q8TBB1]
pKd (FRMPD2_3, Q68DX3; [2]): below the threshold
pKd (SHANK1, Q9Y566; [2]): 4.24
pKd (DLG1_3, Q12959; [2]): below the threshold
pKd (LAP2, Q96RT1; [2]): below the threshold
pKd (MPDZ_5, O75970; [2]): below the threshold
pKd (FRMPD2_1, Q68DX3; [2]): below the threshold
pKd (DLG4_3, P78352; [2]): below the threshold
pKd (FRMPD2_2, Q68DX3; [2]): 3.58
pKd (GOPC, Q9HD26; [2]): 3.75
pKd (MAGI2_4, Q86UL8; [2]): below the threshold
pKd (LIN7C, Q9NUP9; [2]): 3.47
pKd (GORASP1, Q9BQQ3; [2]): below the threshold
pKd (SCRIB_2, Q14160; [2]): below the threshold
pKd (SNTB1, Q13884; [2]): below the threshold
pKd (APBA2_1, Q99767; [2]): below the threshold
pKd (NOS1, P29475; [2]): below the threshold
pKd (MAGI2_6, Q86UL8; [2]): 3.67
pKd (FRMPD1, Q5SYB0; [2]): below the threshold
pKd (GRIP1_7, Q9Y3R0; [2]): below the threshold
pKd (DVL3, Q92997; [2]): below the threshold
pKd (PDZD7_3, Q9H5P4; [2]): 4.13
pKd (CASK, O14936; [2]): below the threshold
pKd (Inadl_5, Q8NI35; [2]): below the threshold
pKd (DLG3_3, Q92796; [2]): below the threshold
pKd (APBA1_2, Q02410; [2]): 4.33
pKd (LNX1_3, Q8TBB1; [2]): below the threshold
pKd (Inadl_1, Q8NI35; [2]): below the threshold

SRRPRTETQV [HPV31-E6, P17386]
pKd (FRMPD2_3, Q68DX3; [1]): below the threshold
pKd (SHANK1, Q9Y566; [1]): below the threshold
pKd (DLG1_3, Q12959; [1]): 4.6
pKd (LAP2, Q96RT1; [1]): 3.9
pKd (MPDZ_5, O75970; [1]): below the threshold
pKd (FRMPD2_1, Q68DX3; [1]): below the threshold
pKd (DLG4_3, P78352; [1]): 5.1
pKd (FRMPD2_2, Q68DX3; [1]): below the threshold
pKd (GOPC, Q9HD26; [1]): below the threshold
pKd (MAGI2_4, Q86UL8; [1]): 4.48
pKd (LIN7C, Q9NUP9; [1]): 3.93
pKd (GORASP1, Q9BQQ3; [1]): below the threshold
pKd (SCRIB_2, Q14160; [1]): 4.38
pKd (SNTB1, Q13884; [1]): 4.15
pKd (APBA2_1, Q99767; [1]): below the threshold
pKd (NOS1, P29475; [1]): 3.91
pKd (MAGI2_6, Q86UL8; [1]): below the threshold
pKd (FRMPD1, Q5SYB0; [1]): below the threshold
pKd (GRIP1_7, Q9Y3R0; [1]): below the threshold
pKd (DVL3, Q92997; [1]): below the threshold
pKd (PDZD7_3, Q9H5P4; [1]): 3.71
pKd (CASK, O14936; [1]): below the threshold
pKd (Inadl_5, Q8NI35; [1]): below the threshold
pKd (DLG3_3, Q92796; [1]): 5.1
pKd (APBA1_2, Q02410; [1]): below the threshold
pKd (LNX1_3, Q8TBB1; [1]): below the threshold
pKd (Inadl_1, Q8NI35; [1]): below the threshold

FVHPILQSAV [PRKCA, P17252]
pKd (FRMPD2_3, Q68DX3; [3]): below the threshold
pKd (SHANK1, Q9Y566; [3]): 4.34
pKd (DLG1_3, Q12959; [3]): 3.85
pKd (LAP2, Q96RT1; [3]): 4.13
pKd (MPDZ_5, O75970; [3]): below the threshold
pKd (FRMPD2_1, Q68DX3; [3]): below the threshold
pKd (DLG4_3, P78352; [3]): 3.88
pKd (FRMPD2_2, Q68DX3; [3]): 3.73
pKd (GOPC, Q9HD26; [3]): 4
pKd (MAGI2_4, Q86UL8; [3]): below the threshold
pKd (LIN7C, Q9NUP9; [3]): 3.52
pKd (GORASP1, Q9BQQ3; [3]): below the threshold
pKd (SCRIB_2, Q14160; [3]): 4.29
pKd (SNTB1, Q13884; [3]): 4.32
pKd (APBA2_1, Q99767; [3]): below the threshold
pKd (NOS1, P29475; [3]): 3.57
pKd (MAGI2_6, Q86UL8; [3]): 3.66
pKd (FRMPD1, Q5SYB0; [3]): below the threshold
pKd (GRIP1_7, Q9Y3R0; [3]): below the threshold
pKd (DVL3, Q92997; [3]): below the threshold
pKd (PDZD7_3, Q9H5P4; [3]): 4.55
pKd (CASK, O14936; [3]): below the threshold
pKd (Inadl_5, Q8NI35; [3]): below the threshold
pKd (DLG3_3, Q92796; [3]): 3.57
pKd (APBA1_2, Q02410; [3]): 3.69
pKd (LNX1_3, Q8TBB1; [3]): below the threshold
pKd (Inadl_1, Q8NI35; [3]): below the threshold
